Here are results for two molecules from patent US20230383007A1 (BIOSION, published 2023).

The target of assay [1] is T1, human TROP2-his protein (human, UniProt P09758 27-274).
T1 construct: also called biotin labeled human TROP2-his protein
T1 sequence: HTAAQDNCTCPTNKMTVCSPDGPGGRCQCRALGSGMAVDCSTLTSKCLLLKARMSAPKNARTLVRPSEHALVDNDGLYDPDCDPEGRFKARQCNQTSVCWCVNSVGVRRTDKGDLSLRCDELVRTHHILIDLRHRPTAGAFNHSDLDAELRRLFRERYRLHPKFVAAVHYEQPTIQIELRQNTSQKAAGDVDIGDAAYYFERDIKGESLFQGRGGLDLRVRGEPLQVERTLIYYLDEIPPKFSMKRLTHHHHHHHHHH
As to the kind of experiment: competitive ELISA: soluble benchmark pre-mixed with biotin labeled human TROP2-his, added to plate coated with the benchmark (self-competition); unit taken from the x axis (nM).

In assay [2] the target is T2, cynomolgus TROP2-his protein (cynomolgus, UniProt P09758 27-272 (human entry), limits assumed).
T2 construct: also called Cyno TROP2-his; Cynomolgus monkey TROP2-his protein
T2 chain: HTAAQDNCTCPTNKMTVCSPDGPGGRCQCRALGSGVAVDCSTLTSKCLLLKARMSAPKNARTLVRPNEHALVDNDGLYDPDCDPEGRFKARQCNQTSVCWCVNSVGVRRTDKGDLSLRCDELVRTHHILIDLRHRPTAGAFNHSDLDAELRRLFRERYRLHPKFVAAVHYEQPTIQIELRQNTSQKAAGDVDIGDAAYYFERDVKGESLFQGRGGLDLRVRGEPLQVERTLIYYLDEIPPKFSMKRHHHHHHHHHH
As to the kind of experiment: indirect ELISA, plate coated with 1 ug/ml TROP2-his; bacterial culture supernatant. Here is the method:
ELISA plates were coated with 100 μl 1 μg/ml human TROP2-his protein (in house made with SEQ ID NO: 16), or 1 μg/ml cynomolgus TROP2-his protein (in house made with SEQ ID NO: 19) in carbonate/bicarbonate buffer (pH 9.6) overnight at 4° C., washed once with wash buffer (PBS+0.05% v/v Tween-20, PBST) and then blocked with 200 μl/well blocking buffer (5% w/v non-fatty milk in PBST) for 2 hours at 37° C. Plates were washed 4 times, and respectively incubated with 100 μl bacterial culture supernatant, and sacituzumab (used as the benchmark, also referred to as BM or BM1 hereinafter, in house made with heavy chain and light chain amino acid sequences set forth in SEQ ID NOs: 17 and 18) in 5% w/v non-fatty milk in PBST at 200 ng/ml, for 40 minutes at 37° C. The plates were washed 4 times, and incubated with THE™ HA Tag Antibody [HRP], mAb, Mouse Antibody (1:5000 dilution in PBST, GenScript, Cat #A01296, 100 μl/well, for plates with bacterial culture supernatans of the disclosure) or Peroxidase AffiniPure F(ab′)₂ Fragment Goat Anti-Human IgG, Fey fragment specific (Jackson Immunoresearch, Cat #109-036-098, for plates with the benchmark), for 40 minutes at 37° C. After a final wash, plates were incubated with 100 μl/well ELISA substrate TMB (Innoreagents, Cat #TMB-S-002) at room temperature. The reaction was stopped in 3-10 minutes with 50 μl/well 1M H₂SO₄, and the absorbance of each well was read on a microplate reader using dual wavelength mode with 450 nm for TMB and 630 nm as the reference wavelength. When the OD of a sample well was 2 times higher than the OD of the blank well, the sample can be determined as positive.

The target of assay [3] is T1, human TROP2-his protein. Nature of the assay: SPR Biacore; antibody captured on anti-human IgG chip, 40 nM human TROP2-his as analyte. From the text:
(§1) The purified anti-TROP2 mouse monoclonal antibodies (mAbs) were characterized for binding affinity and binding kinetics by Biacore T200 system (GE healthcare, Pittsburgh, PA, USA). Briefly, goat anti-human IgG (GE healthcare, Cat #BR100839, Human Antibody Capture Kit) was covalently linked to a CM5 chip (carboxy methyl dextran coated chip from GE healthcare #BR100530) via primary amines, using a standard amine coupling kit (GE healthcare, Pittsburgh, PA, USA) provided by Biacore. Un-reacted moieties on the chip (biosensor) surface were blocked with ethanolamine. The anti-TROP2 antibodies of the disclosure and the benchmark at the concentration of 2 μg/ml were respectively flowed onto the chip at a flow rate of 10 μL/min. Then, serially diluted human TROP2-his protein (prepared in-house with SEQ ID NO: 16), or cynomolgus TROP2-his protein (prepared in-house with SEQ ID NO: 19), 2-fold dilution in HBS-EP⁺ buffer (provided by Biacore) starting at 160 nM, were flowed onto the chip at a flow rate of 30 μL/min. The antigen-antibody association kinetics was followed for 2 minutes and the dissociation kinetics was followed for 10 minutes. The association and dissociation curves were fit to a 1:1 Langmuir binding model using BIAcore evaluation software.
For the BIAcore test, cell supernatants containing the 01-9F-Fc variants were respectively flowed onto the chip instead of the purified anti-TROP2 antibodies, at a flow rate of 10 μL/min, and 40 nM human TROP2-his proteins (prepared in-house with SEQ ID NO: 16) in HBS-EP⁺ buffer (provided by Biacore), instead of serially diluted human TROP2-his proteins, were flowed onto the chip at a flow rate of 30 μL/min.

For assay [4], the target named is T1, human TROP2-his protein. Nature of the assay: SPR Biacore T200; antibody captured on anti-human IgG chip, 40 nM human TROP2-his as analyte.
Excerpt: as §1
For the BIAcore test, cell supernatants containing humanized 01-9F-CDR-V11 antibodies were respectively flowed onto the chip at a flow rate of 10 μL/min, and 40 nM human TROP2-his protein (prepared in-house with SEQ ID NO: 16) in HBS-EP⁺ buffer (provided by Biacore) were flowed onto the chip at a flow rate of 30 μL/min.

B1: sacituzumab (benchmark, an analog of sacituzumab, in house made) (antibody, human IgG1, kappa, V domains shown)
VH: SVQLQQSGSELKKPGASVKVSCKASGYTFTNYGMNWVKQAPGQGLKWMGWINTYTGEPTYTDDFKGRFAFSLDTSVSTAYLQISSLKADDTAVYFCARGGFGSSYWYFDVWGQGSLVTVSS
VL: DIQLTQSPSSLSASVGDRVSITCKASQDVSIAVAWYQQKPGKAPKLLIYSASYRYTGVPDRFSGSGSGTDFTLTISSLQPEDFAVYYCQQHYITPLTFGAGTKVEIKR
notes: also called BM; BM1
In the assay with human TROP2-his protein [1], B1 yielded an IC50 of 0.563 nM.

B2: single domain antibody 01-9F (VHH)
VHH: QVQLVESGGGSVQAGGSLRLSCVVSGLPYERYCVAWFRQGPGKEREGVARILSDGTTSYSDSVKGRFTISKDNAKNTLYLQMNSLKSEDTATYYCAAEAFRPFTPSDGDCTTVLGIDYWGKGTPVTVSS
B2: the “Indirect ELISA OD (450-630)” value in assay [2] was 0.59 OD (450-630). For the same molecule, in the assay with human TROP2-his protein [3], the Kd is 0.202 nM, the koff amounted to 0.000101 s⁻¹ and the kon was 502000 M⁻¹ s⁻¹. In the assay with human TROP2-his protein [4], this molecule returned an equilibrium dissociation constant (Kd) of 0.188 nM, a koff of 0.000224 s⁻¹ and a kon of 1.19e+06 M⁻¹ s⁻¹.
